Sequences and labels used below:
B1: Hy52 BCMA CAR (other)
chain: EVQLVESGGGLVKPGGSLRLSCAASGFTFSSFRMNWVRQAPGKGLEWVSSISSSSSYIYYADSVKGRFTISRDNAKNSLYLQMNSLRAEDTAVYYCARWLSYYGMDVWGQGTTVTVSSGGGGSGGGGSGGGGSGGGGSDIVMTQTPLSLPVTPGEPASISCRSSQSLLDSDDGNTYLDWYLQKPGQSPQLLIYTLSFRASGVPDRFSGSGSGTDFTLKIRRVEAEDVGVYYCMQRIGFPITFGQGTRLEIKTTTPAPRPPTPAPTIASQPLSLRPEACRPAAGGAVHTRGLDFACDIYIWAPLAGTCGVLLLSLVITLYCKRGRKKLLYIFKQPFMRPVQTTQEEDGCSCRFPEEEEGGCELRVKFSRSADAPAYQQGQNQLYNELNLGRREEYDVLDKRRGRDPEMGGKPRRKNPQEGLYNELQKDKMAEAYSEIGMKGERRRGKGHDGLYQGLSTATKDTYDALHMQALPPR
notes: Chimeric antigen receptor expressed on JNL cells or primary human T cells after lentiviral transduction
B2: B61-02 BCMA CAR (other)
chain: QVQLVESGGGVVQPGRSLRLSCAASGFTFSSYGMHWVRQAPGKGLEWVAVISYKGSNKYYADSVKGRFTISRDNSKNTLYLQMNSLRAEDTAVYYCGGSGYALHDDYYGLDVWGQGTLVTVSSGGGGSGGGGSGGGGSGGGGSQSALTQPASVSGSPGQSITISCTGTSSDVGGYNYVSWYQQHPGKAPKLMIYEVSNRLRGVSNRFSGSKSGNTASLTISGLQAEDEADYYCSSYTSSSALYVFGSGTKVTVLTTTPAPRPPTPAPTIASQPLSLRPEACRPAAGGAVHTRGLDFACDIYIWAPLAGTCGVLLLSLVITLYCKRGRKKLLYIFKQPFMRPVQTTQEEDGCSCRFPEEEEGGCELRVKFSRSADAPAYQQGQNQLYNELNLGRREEYDVLDKRRGRDPEMGGKPRRKNPQEGLYNELQKDKMAEAYSEIGMKGERRRGKGHDGLYQGLSTATKDTYDALHMQALPPR
notes: as for B1
B3: B61-10 BCMA CAR (other)
chain: QVQLVESGGGVVQPGRSLRLSCAASGFTFSSYGMHWVRQAPGKGLEWVAVISYKGSNKYYADSVKGRFTISRDNSKNTLYLQMNSLRAEDTAVYYCGGSGYALHDDYYGLDVWGQGTLVTVSSGGGGSGGGGSGGGGSGGGGSQSALTQPASVSGSPGQSITISCTGTSSDVGGYNYVSWYQQHPGKAPKLMIYEVSNRLRGVSNRFSGSKSGNTASLTISGLQAEDEADYYCSSYTSSSTLYVFGSGTKVTVLTTTPAPRPPTPAPTIASQPLSLRPEACRPAAGGAVHTRGLDFACDIYIWAPLAGTCGVLLLSLVITLYCKRGRKKLLYIFKQPFMRPVQTTQEEDGCSCRFPEEEEGGCELRVKFSRSADAPAYQQGQNQLYNELNLGRREEYDVLDKRRGRDPEMGGKPRRKNPQEGLYNELQKDKMAEAYSEIGMKGERRRGKGHDGLYQGLSTATKDTYDALHMQALPPR
notes: as for B1
B4: PI61 BCMA CAR (other)
chain: QVQLQESGGGVVQPGRSLRLSCAASGFTFSSYGMHWVRQAPGKGLEWVAVISYDGSNKYYADSVKGRFTISRDNSKNTLYLQMNSLRAEDTAVYYCGGSGYALHDDYYGLDVWGQGTLVTVSSGGGGSGGGGSGGGGSQSALTQPASVSGSPGQSITISCTGTSSDVGGYNYVSWYQQHPGKAPKLMIYDVSNRPSGVSNRFSGSKSGNTASLTISGLQAEDEADYYCSSYTSSSTLYVFGSGTKVTVLTTTPAPRPPTPAPTIASQPLSLRPEACRPAAGGAVHTRGLDFACDIYIWAPLAGTCGVLLLSLVITLYCKRGRKKLLYIFKQPFMRPVQTTQEEDGCSCRFPEEEEGGCELRVKFSRSADAPAYQQGQNQLYNELNLGRREEYDVLDKRRGRDPEMGGKPRRKNPQEGLYNELQKDKMAEAYSEIGMKGERRRGKGHDGLYQGLSTATKDTYDALHMQALPPR
notes: Chimeric antigen receptor expressed on JNL cells or primary human T cells after lentiviral transduction; also called P161
B5: Hy03 BCMA CAR (other)
chain: EVQLVESGGGLVQPGGSLRLSCAASGFTFSGFWMSWVRQAPGKGLEWVANIKQDGSEKYYVDSVRGRFTISRDNAKNSLYLQMNSLRAEDTAVYYCARALDYYGMDVWGQGTTVTVSSGGGGSGGGGSGGGGSGGGGSDIVMTQTPLSLPVTPGEPASISCRSSQSLLDSDDGNTYLDWYLQKPGQSPRLLIYTLSYRASGVPDRFSGSGSGTDFTLKISRVEAEDVGLYYCTQRLEFPSITFGQGTRLEIKTTTPAPRPPTPAPTIASQPLSLRPEACRPAAGGAVHTRGLDFACDIYIWAPLAGTCGVLLLSLVITLYCKRGRKKLLYIFKQPFMRPVQTTQEEDGCSCRFPEEEEGGCELRVKFSRSADAPAYQQGQNQLYNELNLGRREEYDVLDKRRGRDPEMGGKPRRKNPQEGLYNELQKDKMAEAYSEIGMKGERRRGKGHDGLYQGLSTATKDTYDALHMQALPPR
notes: as for B1

The text below walks through data of patent US20190382500A1 (Novartis, published 2019).

For this test, the target named is T1, human recombinant (r)BCMA_Fc-AF647 (human, UniProt Q02223 1-54, AF647 fluorescent label (site not stated)).
T1 construct: Staining reagent for CAR detection by flow cytometry; not shown: Fc part
T1 sequence (looked up): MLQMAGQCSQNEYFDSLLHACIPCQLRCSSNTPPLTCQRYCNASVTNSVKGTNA
The experiment in a line: flow cytometry, rBCMA_Fc-AF647 staining of CAR-transduced primary human T cells. The source says:
The following 8 CARs were chosen for analysis of CAR expression, stability and efficacy in primary T cells: R1B6, R1F2, RIGS, PI61, B61-10, B61-02, Hy03, and Hy52. BCMA CAR T cells were generated by starting with blood from healthy apheresed donors whose T cells (CD4+ and CD8+ lymphocytes) were obtained by negative selection for CD3+ T cells. These cells were activated by the addition of CD3/CD28 beads (Dynabeads® Human T-Expander CD3/CD28, Thermo Fisher Scientific) at a ratio of 1:3 (T cell to bead) in T cell medium (RPMI1640, 10% heat-inactivated fetal calf serum (FCS), 2 mM L-glutamine, 1× Penicillin/Streptomycin, 100 μM non-essential amino acids, 1 mM Sodium Pyruvate, 10 mM Hepes, and 55 μM 2-mercaptoethanol). T cells were cultured at 0.5×10⁶ T cells in 1 mL medium per well of a 24-well plate at 37° C., 5% CO₂. After 24 hours, when T cells were blasting, T cells were transduced with BCMA CAR virus at a multiplicity of infection (MOI) of 5. T cells began to divide in a logarithmic growth pattern, which was monitored by measuring the cell counts per mL, and T cells were diluted in fresh medium every two days and de-beaded and harvested for further analyses at day 9. Aliquots of T cells were stained to measure CAR expression by flow cytometry at day 5 and 9 on a FACS Fortessa (BD). All BCMA CAR T cells were produced under research grade (i.e., not clinical grade) manufacturing conditions.
The BCMA-CAR surface expression and its stability was assessed by measuring CAR % and MFI (mean fluorescence intensity) at day 5 and day 9 using flow cytometry analyses of rBCMA_Fc-AF647 stained cells (FIG. 2 and Table 17).
(In flow cytometry, cells or beads pass a laser one at a time.)
For B1, the “CAR % on T cells, Day 5” value is 35.1%; the “CAR % on T cells, Day 9” value was determined as 36.1%; the “CAR MFI on T cells, Day 5” value came to 33700 MFI; the “CAR MFI on T cells, Day 9” value is 2860 MFI.

For the molecule B2, the “CAR % on T cells, Day 5” value came to 33.5%; the “CAR % on T cells, Day 9” value came to 23.6%; the “CAR MFI on T cells, Day 5” value is 29100 MFI; the “CAR MFI on T cells, Day 9” value came out at 3470 MFI.

Take B3: the “CAR % on T cells, Day 5” value came out at 41.1%; the “CAR % on T cells, Day 9” value was 30.3%; the “CAR MFI on T cells, Day 5” value stood at 27300 MFI; the “CAR MFI on T cells, Day 9” value was found to be 3290 MFI.

As to B4, the “CAR % on T cells, Day 5” value was 47.4%; the “CAR % on T cells, Day 9” value stood at 42.3%; the “CAR MFI on T cells, Day 5” value was determined as 24400 MFI; the “CAR MFI on T cells, Day 9” value came out at 2100 MFI.

Consider B5, for which the “CAR % on T cells, Day 5” value was 33.7%; the “CAR % on T cells, Day 9” value is 18.1%; the “CAR MFI on T cells, Day 5” value was 9460 MFI; the “CAR MFI on T cells, Day 9” value stood at 929 MFI.
